Experimental data as given in US12186353B2, “Method of reducing neuronal microtubule binding protein Tau (Tau) levels” (ADAERATA, LIMITED PARTNERSHIP, priority 2018, dated 2025).

Test system: Tau::GFP fusion protein
Test: Intracellular Tau::GFP fluorescence in stable inducible HEK293 cells with proteasome or lysosome inhibitor
Type: cell-based
Conditions: stable inducible HEK293, Numb72 vs control empty vector, fixed 48 h after doxycycline
Experimental: FIG. 7A Stable inducible cell line HEK293 that express a Tau::GFP fusion protein was transfected with Control Myc or Numb72::Myc, and the Tau::GFP expression was activated by adding Doxycycline 6 h later. The cells were fixed 48 h later and stained for Myc. FIG. 7B. The mean intensity (±SEM) of intracellular Tau::GFP fluorescence in transfected cells was quantified. Cells were treated with vehicle, MG132 (a proteasome inhibitor, 25 uM) or Chloroquine (a lysosome inhibitor, 25 uM) for 4 h before fixation and Myc staining. Quantification represents mean intensity +/− SEM, *p≤0.01; Anova 1-way test.
The potential role of the proteasome and of the lysosome on the ability of Numb to reduce Tau levels was assessed. A stable inducible cell line (HEK293) expressing a Tau::GFP fusion protein was transfected with
Numb72 or a control empty vector. The intracellular Tau::GFP levels was compared when the cells were treated with a proteasome inhibitor (MG132), a lysosome inhibitor (Chloroquine) or a control (vehicle). […] (FIGS. 7A-B).

B1: Numb-72: 72 kDa Numb isoform with long PTB domain and long PRR; human isoform 1 (SEQ ID NO: 1); expressed by transfection (protein)
chain: MNKLRQSFRRKKDVYVPEASRPHQWQTDEEGVRTGKCSFPVKYLGHVEVDESRGMHICEDAVKRLKAERKFFKGFFGKTGKKAVKAVLWVSADGLRVVDEKTKDLIVDQTIEKVSFCAPDRNFDRAFSYICRDGTTRRWICHCFMAVKDTGERLSHAVGCAFAACLERKQKREKECGVTATFDASRTTFTREGSFRVTTATEQAEREEIMKQMQDAKKAETDKIVVGSSVAPGNTAPSPSSPTSPTSDATTSLEMNNPHAIPRRHAPIEQLARQGSFRGFPALSQKMSPFKRQLSLRINELPSTMQRKTDFPIKNAVPEVEGEAESISSLCSQITNAFSTPEDPFSSAPMTKPVTVVAPQSPTFQANGTDSAFHVLAKPAHTALAPVAMPVRETNPWAHAPDAANKEIAATCSGTEWGQSSGAASPGLFQAGHRRTPSEADRWLEEVSKSVRAQQPQASAAPLQPVLQPPPPTAISQPASPFQGNAFLTSQPVPVGVVPALQPAFVPAQSYPVANGMPYPAPNVPVVGITPSQMVANVFGTAGHPQAAHPHQSPSLVRQQTFPHYEASSATTSPFFKPPAQHLNGSAAFNGVDDGRLASADRHTEVPTGTCPVDPFEAQWAALENKSKQRTNPSPTNPFSSDLQKTFEIEL
modifications: homo sapiens
notes: 72 kDa Numb isoform with long PTB domain and long PRR; expressed by transfection
  intracellular Tau::GFP levels: induced a decrease of Tau::GFP levels
